Source: publication PMC7166197 (Molecular cell, 2020)

Molecular target: RNA polymerase β subunit of Escherichia coli (Escherichia coli, UniProt P0A8V2 1-1342)
Assay: cryo-EM structure

Sequence of RNA polymerase β subunit of Escherichia coli (P0A8V2 whole entry): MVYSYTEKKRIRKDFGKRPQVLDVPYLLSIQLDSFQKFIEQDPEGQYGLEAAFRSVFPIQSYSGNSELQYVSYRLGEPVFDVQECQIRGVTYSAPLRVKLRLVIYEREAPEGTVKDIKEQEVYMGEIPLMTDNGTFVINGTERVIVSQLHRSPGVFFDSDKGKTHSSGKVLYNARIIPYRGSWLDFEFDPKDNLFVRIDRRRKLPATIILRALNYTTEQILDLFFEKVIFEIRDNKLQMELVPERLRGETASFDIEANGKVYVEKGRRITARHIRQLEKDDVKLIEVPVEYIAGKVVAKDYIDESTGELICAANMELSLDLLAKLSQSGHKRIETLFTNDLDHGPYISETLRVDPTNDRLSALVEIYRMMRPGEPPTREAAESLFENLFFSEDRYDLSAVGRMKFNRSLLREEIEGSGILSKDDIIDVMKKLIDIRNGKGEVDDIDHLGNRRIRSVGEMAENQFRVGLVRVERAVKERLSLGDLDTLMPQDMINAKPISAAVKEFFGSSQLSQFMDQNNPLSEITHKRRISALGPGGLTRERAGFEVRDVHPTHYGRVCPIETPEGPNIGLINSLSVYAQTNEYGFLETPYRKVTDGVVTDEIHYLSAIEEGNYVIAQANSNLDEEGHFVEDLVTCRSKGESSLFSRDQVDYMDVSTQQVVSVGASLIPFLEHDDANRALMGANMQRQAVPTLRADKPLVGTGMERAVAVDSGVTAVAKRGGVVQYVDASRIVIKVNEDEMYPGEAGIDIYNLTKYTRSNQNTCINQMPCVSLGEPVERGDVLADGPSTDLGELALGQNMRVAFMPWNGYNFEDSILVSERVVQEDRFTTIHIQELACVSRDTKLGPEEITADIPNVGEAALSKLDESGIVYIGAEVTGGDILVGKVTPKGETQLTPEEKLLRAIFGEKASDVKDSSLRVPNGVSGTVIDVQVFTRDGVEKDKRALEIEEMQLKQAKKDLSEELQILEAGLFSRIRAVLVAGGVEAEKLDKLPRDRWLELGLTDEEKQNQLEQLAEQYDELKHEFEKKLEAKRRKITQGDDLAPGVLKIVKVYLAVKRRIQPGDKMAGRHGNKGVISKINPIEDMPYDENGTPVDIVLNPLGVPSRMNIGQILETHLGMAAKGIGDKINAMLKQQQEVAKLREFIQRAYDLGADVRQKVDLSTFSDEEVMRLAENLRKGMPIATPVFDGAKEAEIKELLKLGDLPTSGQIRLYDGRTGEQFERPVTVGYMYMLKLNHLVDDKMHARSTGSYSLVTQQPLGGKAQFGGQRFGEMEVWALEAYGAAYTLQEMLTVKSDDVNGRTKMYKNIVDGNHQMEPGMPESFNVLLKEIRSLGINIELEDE

B1: TraR (natural protein, Escherichia coli)
chain: SDEADEAYSVTEQLTMTGINRIRQKINAHGIPVYLCEACGNPIPEARRKIFPGVTLCVECQAYQERQRKHYA
- binding result: binds
